Measurements reported in patent US9114144B2, “Kallikrein-inhibitor therapies” (Dyax Corp., priority 2002, dated 2015).
Positions of bridges follow the written chain, without caps; N, C: chain ends. No end group written: not given here.

Assays:
human plasma kallikrein = human plasma kallikrein (Homo sapiens, UniProt P03952); assay: Kallikrein inhibition assay, Ki,app; assay type: biochemical; conditions: fold higher than aprotinin
Experimental: The potency assay of KI polypeptides, such as PEP-1, described herein was a kinetic test, which measured fluorescence generation following the kallikrein-mediated cleavage of a substrate, […] amino methyl coumarin. A known amount of kallikrein was incubated with buffer, with a serially diluted KI polypeptide reference standard, or serially diluted KI polypeptide test samples. Each sample was run in triplicate. The substrate solution was added, and the plate read immediately using an excitation wavelength of 360 nm and an emission wavelength of 460 nm. At least two each of the reference standard and sample curves were required to have an R-squared value of ≧0.95 to be considered valid.

kallikrein = assay: Kallikrein inhibitory activity in plasma and CSF of non-ischemic mice after iv treatment; assay type: in vivo
Experimental: […] analysis was performed to determine whether DX-88 was able to cross the blood-brain barrier. Non-ischemic mice were treated iv with saline or DX-88 (10 μg/mouse or 30 μg/mouse) and plasma was drawn 30 or 60 min after administration. Thirty minutes after DX-88 treatment, plasma kallikrein inhibitory activity was 2 and 4 times higher in mice treated with […], respectively.
The same dose of DX-88 was given at the beginning of ischemic period. Twenty four hours after ischemia, neurological deficits and infarct size were evaluated.

Chain of human plasma kallikrein (P03952 20-390 partner limits assumed): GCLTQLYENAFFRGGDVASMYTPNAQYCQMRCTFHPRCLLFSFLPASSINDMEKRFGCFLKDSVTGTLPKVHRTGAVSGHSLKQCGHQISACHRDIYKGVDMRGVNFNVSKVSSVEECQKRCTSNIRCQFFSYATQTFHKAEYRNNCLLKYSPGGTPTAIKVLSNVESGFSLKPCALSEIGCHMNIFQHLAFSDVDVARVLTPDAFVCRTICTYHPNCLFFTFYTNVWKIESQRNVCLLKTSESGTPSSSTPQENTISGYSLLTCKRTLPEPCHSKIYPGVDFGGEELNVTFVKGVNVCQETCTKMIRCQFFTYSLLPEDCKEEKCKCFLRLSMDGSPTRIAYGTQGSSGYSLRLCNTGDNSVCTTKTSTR
Chain of human plasma kallikrein (P03952 391-638 limits assumed): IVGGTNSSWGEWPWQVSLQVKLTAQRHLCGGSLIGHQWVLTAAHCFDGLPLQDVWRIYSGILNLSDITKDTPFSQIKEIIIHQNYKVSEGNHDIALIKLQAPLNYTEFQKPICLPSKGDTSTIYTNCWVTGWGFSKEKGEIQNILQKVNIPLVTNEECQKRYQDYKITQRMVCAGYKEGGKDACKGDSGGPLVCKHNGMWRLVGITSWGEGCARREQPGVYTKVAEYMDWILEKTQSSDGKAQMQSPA

EAMHSFCAFKADDGPCRAAHPRWFFNIFTRQCEEFIYGGCEGNQNRFESLEECKKMCTRD (disulfide 7-57, 16-40, 32-53) [PEP-1]
affinity (Ki) for kallikrein relative to aprotinin (human plasma kallikrein): 1000 times | affinity (Ki) for kallikrein relative to aprotinin (human plasma kallikrein; listed as DX-88): at least 1000 times | inhibitory activity in cerebral spinal fluid (CSF) (kallikrein; 30 μg iv, CSF drawn 30 or 60 min after administration): marked inhibitory activity | inhibitory activity in CSF (kallikrein; 30 μg/mouse iv, thirty minutes after treatment): marked inhibitory activity | crossing of the blood-brain barrier (kallikrein; intact blood-brain barrier, active form): can cross rapidly the intact blood-brain barrier
